Results taken from patent publication US20250381225A1 (DEVELOPMENT CENTER FOR BIOTECHNOLOGY, published 2025).

What was measured:
[1] = target: T1, PD1-hFc (UniProt Q15116 25-167); experiment: ELISA on PD-1; protein purified from supernatant of 293T cells transfected with the CAR plasmid
T1 construct: ELISA coat at 1 ug/ml; not shown: hFc (human Fc)
Experimental: To evaluate the expression of the present CAR construct, the plasmid encoding the CAR molecule was transfected into 293T cells. The protein was harvested from the supernatant of the cultured cells, followed by purifying and quantifying via measuring OD260/280. On the other hand, the binding affinity of the purified protein towards PD-1 was determined by ELISA.

[2] = target: T1, PD1-hFc; experiment: ELISA on coated PD1-hFc; scFv-Fc expressed in FreeStyle 293 cells
[3] = target: T1, PD1-hFc; experiment: ELISA on coated PD1-hFc, anti-human kappa HRP, one site-specific binding fit
Experimental: ELISA plates were coated with PD1-hFc (1 ug/ml) and blocked with blocking buffer (5% milk dissolved in PBS). The antibodies from 66.67 nM to […] dilute (4× fold dilution) were then added to the plates. The binding affinity of tested antibody to PD1-hFc was determined via adding goat anti-human KAPPA HRP IgG (1:3,000 dilution), and binding curve and KD were determined by software using one site-specific binding for nonlinear fit methods.

[4] = target: T2, recombinant PD-1 protein (UniProt Q15116 25-167, limits assumed); experiment: ELISA, recombinant PD-1 coated at 0.1 ug/well, serially diluted antibody
T2 construct: It may or may not be the same reagent as PD1-hFc
T2 sequence (Q15116 25-167 limits assumed): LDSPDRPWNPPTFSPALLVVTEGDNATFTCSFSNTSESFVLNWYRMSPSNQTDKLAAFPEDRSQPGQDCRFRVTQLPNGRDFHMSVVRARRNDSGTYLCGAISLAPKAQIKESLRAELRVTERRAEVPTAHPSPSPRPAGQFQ
Experimental: Antibodies of the invention were evaluated for specific binding to PD-1 using an enzyme-linked immunosorbent assay (ELISA). Briefly, recombinant PD-1 protein was immobilized on a 96-well ELISA plate at 0.1 μg/well. The chimeric anti-human PD-1 2B6 antibody was serially diluted and incubated with the coated PD-1, followed by detection with a horseradish peroxidase (HRP)-conjugated goat anti-mouse IgG secondary antibody. The binding was visualized using 3,3′,5,5′-tetramethylbenzidine (TMB) as a substrate, and the optical density (OD) was measured at 405 nm to assess the binding activity.

[5] = target: human PD-1 on PD-1 Effector Cells (Jurkat T cells) (human, UniProt Q15116 25-288); experiment: cell-based or functional assay
Chain of human PD-1 on PD-1 Effector Cells (Jurkat T cells) (Q15116 25-288): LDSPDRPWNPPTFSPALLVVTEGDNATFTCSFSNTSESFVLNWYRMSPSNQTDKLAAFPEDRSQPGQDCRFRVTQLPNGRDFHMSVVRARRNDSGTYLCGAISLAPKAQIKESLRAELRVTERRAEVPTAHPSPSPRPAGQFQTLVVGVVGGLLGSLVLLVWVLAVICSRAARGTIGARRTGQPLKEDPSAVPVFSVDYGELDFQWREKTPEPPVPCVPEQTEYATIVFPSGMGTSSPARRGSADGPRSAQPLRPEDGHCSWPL

T1 sequence (Q15116 25-167): as the sequence (Q15116 25-167 limits assumed) above

Kd [3] | Binder | also measured
0.403 nM | humanized antibody 2B6 HuB1 Hd (antibody, V domains shown, Heavy chain HuB1 with light chain Hd) VH: EVQLVESGGGLVQPGGSLRLSCAASGFTFSSYTMSWVRQAPGKGLEWVATISGGGANIYYPDSVKGRFTISRDNSKNTLYLQMNSLRAEDTAVYYCVSPYYAIDFWGQGTLVTVSS VL: DIQMTQSPSSLSASVGDRVTITCKASQDVGSAVAWYQQKPGKAPKLLIYWASTRHTGVPSRFSGSGSGTDFTLTISSLQPEDFATYYCQQYSTYTWTFGQGTKVEIK | –
0.495 nM | chimeric anti-human PD-1 2B6 antibody (antibody, V domains shown, also called mAb 2B6; M-M) VH: EVKLVESGGGLVKPGGSLKLSCAAAGFTFSSYTMSWVRQTPAKRLEWVATISGGGANIYYPDSVKGRFTISRDNARNTLYLQMSSLRSEDTAMYYCVSPYYAIDFWGQGTSVTVSS VL: DTVMTQSDKFMSTSVGDRVSITCKASQDVGSAVAWYQQKPGQSPKLLIYWASTRHTGVPDRFTGSGSGTDFTLTISNVQSEDLADYFCQQYSTYTWTFGGGTKLEIK | Kd [4]: 0.809 nM; NFAT-RE-mediated luminescence (PD-1/PD-L1 Blockade Bioassay), EC50 [5]: 3.88 nM

The remaining lines, values behind:

Binder | Kd [3] | also measured
recombinant humanized 2B6 HuB1-scFv-Fc (Fc fusion, Both carry the same printed name and are kept as one molecule; also called 286 HuB1-scFv-Fc; PD-1^2B6 scFv-Fc; not shown: lim) scFv: EVQLVESGGGLVQPGGSLRLSCAASGFTFSSYTMSWVRQAPGKGLEWVATISGGGANIYYPDSVKGRFTISRDNSKNTLYLQMNSLRAEDTAVYYCVSPYYAIDFWGQGTLVTVSSGGGGSGGGGSGGGGSDIQMTQSPSSLSASVGDRVTITCKASQDVGSAVAWYQQKPGKAPKLLIYWASTRHTGVPSRFSGSGSGTDFTLTISSLQPEDFATYYCQQYSTYTWTFGQGTKVEIK | – | Kd [1]: 1.75 nM; Kd [2]: 2.58 nM
humanized antibody 2B6 HdB1 Hd (antibody, V domains shown, Heavy chain HdB1 with light chain Hd) VH: EVQLVESGGGLVQPGGSLRLSCKASGFTFSSYTMSWVRQAPGKGLEWVATISGGGANIYYPDSVKGRFTISRDNSKNTLYLQMNSLRAEDTAVYYCVSPYYAIDFWGQGTLVTVSS VL: DIQMTQSPSSLSASVGDRVTITCKASQDVGSAVAWYQQKPGKAPKLLIYWASTRHTGVPSRFSGSGSGTDFTLTISSLQPEDFATYYCQQYSTYTWTFGQGTKVEIK | 0.368 nM | –
humanized 2B6 4D5 (2B6-HdHd) (antibody, V domains shown, Heavy chain Hd with light chain Hd) VH: EVQLVESGGGLVQPGGSLRLSCKASGFTFSSYTMSWVRQAPGKGLEWVATISGGGANIYYPDSVKGRFTISRDDSKNTLYLQMNSLRAEDTAVYYCARPYYAIDFWGQGTLVTVSS VL: DIQMTQSPSSLSASVGDRVTITCKASQDVGSAVAWYQQKPGKAPKLLIYWASTRHTGVPSRFSGSGSGTDFTLTISSLQPEDFATYYCQQYSTYTWTFGQGTKVEIK | 179 nM | –
